Drawing on paper PMC6258048, this text covers binding signal for 3 molecules.

Read-outs that look alike come from different tables or passages of the source.

Common to all, as to test: EMSA
The target in series [1] is T1, Tcf3 B-HLH domain (E47);Ascl1 B-HLH domain (;, UniProt P15806-2;Q02067 ;, |).
T1 sequence 1: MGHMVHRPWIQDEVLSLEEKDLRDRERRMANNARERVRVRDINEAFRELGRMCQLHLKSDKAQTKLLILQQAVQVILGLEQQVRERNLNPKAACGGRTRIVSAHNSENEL
T1 sequence 2: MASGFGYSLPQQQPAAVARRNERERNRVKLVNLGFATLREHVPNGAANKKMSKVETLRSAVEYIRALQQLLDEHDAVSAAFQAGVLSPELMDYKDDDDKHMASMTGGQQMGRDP

Series [2] concerns the target T1, Tcf3 B-HLH domain (E47);Ascl1 B-HLH …. The source holds these as a separate data set.
A further series deals with T2, Tcf3 B-HLH domain (E47) (UniProt P15806-2).
T2 sequence: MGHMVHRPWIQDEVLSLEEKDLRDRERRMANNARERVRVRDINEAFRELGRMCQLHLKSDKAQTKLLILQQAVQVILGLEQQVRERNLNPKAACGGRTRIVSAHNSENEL

A further series has as its target Tcf4 B-HLH domain (UniProt Q60722).
Another series has as its target Tcf12 B-HLH domain (UniProt Q61286).
In the next series the target is T3, Ascl1 B-HLH domain (UniProt Q02067).
T3 sequence: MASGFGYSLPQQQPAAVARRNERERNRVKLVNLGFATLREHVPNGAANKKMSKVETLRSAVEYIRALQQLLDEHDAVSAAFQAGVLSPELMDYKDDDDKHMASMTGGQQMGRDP

For series [3], the target named is Tcf12 B-HLH domain;Ascl1 B-HLH domain (;, UniProt Q61286;Q02067 ;, |).
The target of series [4] is Tcf4 B-HLH domain;Ascl1 B-HLH domain (;, UniProt Q60722;Q02067 ;, |).

B1: weak E-box CGCAA|ATG 28-mer C(a)|C(b) (dsDNA)
DNA 1: CTGACCCATACGCAAATGTCTGACTGAC
DNA 2: GTCAGTCAGACATTTGCGTATGGGTCAG
Regarding B1, the binding signal in series [1] is about 100 fold weaker than N1.

B2: weak E-box CGCAA|ATG 28-mer 5caC(a)|5caC(b) (dsDNA)
DNA 1: CTGACCCATACGCAAATGTCTGACTGAC
DNA 2: GTCAGTCAGACATTTGCGTATGGGTCAG
modifications: 5caC at C11 of strand 1 and C17 of strand 2
Take B2: in series [1], the binding signal is about 10 fold binding vs N8.

B3: CGCAG|GTG 28-mer 5caC(a)|5caC(b) (dsDNA)
DNA 1: CTGACCGATACGCAGGTGCCTGACTGAC
DNA 2: GTCAGTCAGGCACCTGCGTATCGGTCAG
modifications: 5caC at C11 of strand 1 and C17 of strand 2
Regarding B3, the binding signal in series [2] was about 10 fold binding vs N1; with Tcf3 B-HLH domain (E47), about 2 fold binding vs N1; with Tcf4 B-HLH domain it was about 3 fold binding vs N1; with Tcf12 B-HLH domain, about 4 fold binding vs N1; with Ascl1 B-HLH domain, about 6 fold binding vs N1; in series [3] it was about 10 fold binding vs N1. In series [4], this molecule returned a binding signal of about 6 fold binding vs N1.
